Results taken from article PMC7734621.

Molecular target: Minerva virus protease (MVpro), NS6 3C-like protease of a GII.4 norovirus (Minerva virus (norovirus GII.4, 2006b variant))
Assay: SEC

## Minerva virus protease (MVpro), NS6 3C-like protease of a GII.4 norovirus (enzyme)
  stoichiometry N: 2
